# Test results: patent US12570957B2, “Isolated naive pluripotent stem cells and methods of generating same” (Yeda Research and Development Co. Ltd., priority 2013, dated 2026)
# B1: BMP4: bone morphogenetic protein 4, recombinant human (protein, UniProt P12644 293-408, looked up)
# Bone morphogenetic protein 4: SPKHHSQRARKKNKNCRRHSLYVDFSDVGWNDWIVAPPGYQAFYCHGDCPFPLADHLNSTNHAIVQTLVNSVNSSIPKACCVPTELSAISMLYLDEYDKVVLKNYQEMVVEGCGCR
# How the values were obtained:
# Type in all cases: cell-based
# WIS1 naive human ESCs = assay: PGCLC induction from naive ESCs, NANOS3-mCherry FACS; conditions: 2 days N2-KSR medium then 4 days PGC medium
# Text: FIGS. 96A-96I depict the process of differentiating human ESCs into primordial germ cell like cells. FIG. 96A—schematic illustration of the differentiation process. FIGS. 96B-96I—FACS analyses for detecting PGCLC marker expression NANOS3-Cherry. […] Shown are FACS results after 2 (FIGS. 96D and 96G), 4 (FIGS. 96E and 96H), and 6 (FIGS. 96F and 961) days in the PGC medium. The Figures show specific induction of mCherry reporter at Day 2+4 and only when BMP4 is included in the differentiation medium (FIG. 96E). […] One representative experiment is shown out of five performed. +/− indicates s.d. (n=5).
# N2-KSR medium—250 ml Neurobasal medium (Invitrogen—#21103-049), 250 ml DMEM-F12, N2 supplement (Invitrogen, #17502-048), 1% KSR (knockout serum replacement, Invitrogen, #10828028) medium] with 8 ng/ml bFGF (Peprotech), 1 ng/ml TGF-β1 (Peprotech) and ROCKi (10 μM).
# PGC medium is comprised of GMEM (Invitrogen, #21710082), 15% KSR, 1% NNEA (Biological industries, 01-340-1B), Penicillin-Streptomycin, 1 mM L-Glutamine, […] (Y-27632, Axon Medchem) and the following cytokines: 500 ng/ml BMP4 (bone morphogenetic protein 4; R&D Systems Inc.), 20 ng/ml LIF (leukemia inhibitory factor; PeproTech), 100 ng/ml SCF (Stem Cell Factor; PeproTech), 50 ng/ml EGF (Epidermal Growth Factor; Peprotech). […]
# naive hESCs/hiPSCs = assay: Pluripotency maintenance after supplementation of inhibitors or growth factors; conditions: naive human cells in WIS-NHSM
# Protocol: (§1) Shown are histograms depicting colony formation of pluripotent cell lines in various media. Cell populations were equally divided and plated on gelatin/vitronectin coated plates in the indicated growth medium in which these cell lines are normally maintained (mouse naive cells in a medium containing 2i/LIF, naive hESCs/iPSCs in a WIS-NHSM medium, mouse EpiSCs and human primed ESCS/iPSCs in a KSR/bFGF/TGFβmedium). 36 hours later the wells were supplemented with the indicated inhibitors or growth factors. After 14 days (2 passages), wells were analyzed for Oct4-GFP pluripotency marker expression by FACS, to determine the relative percentage of pluripotent colonies. Pluripotent cell frequency was normalized to an internal control, as indicated by “Growth medium” only on the far left column (For naive cells growth medium was WIS-NHSM, and for primed cells was conventional KSR/bFGF/TGFβcontaining medium as specified in methods). […]
# (§2) FIGS. 108A-108C—Signaling and functional characteristics of human naive pluripotency. […] After 14 days (2 passages), wells were analyzed by OCT4 immunostaining of direct detection of OCT4-GFP pluripotency reporter expression, to determine the relative percentage of undifferentiated pluripotent cells. […] After 20 days, colonies positive for OCT4 pluripotency markers were counted and normalized to colonies from cells electroporated with empty vector. […]
# primed hESCs/hiPSCs = assay: as above; conditions: primed human cells
# Protocol: as §1, §2
molecule,measurement,setting,value
B1,cells expressing NANOS3-mCherry reporter,WIS1 naive human ESCs,17.7%
same,response of pluripotent state,naive hESCs/hiPSCs,do not differentiate
same,response of pluripotent state,primed hESCs/hiPSCs,differentiated
